Source: article PMC5461540, “MOB1 Mediated Phospho-recognition in the Core Mammalian Hippo Pathway” (Molecular & Cellular Proteomics : MCP, 2017)

Biological target: MOB1B 2-216 (UniProt Q7L9L4)
Assay: SPOT peptide array overlaid with GST-MOB1B

| binding against the reference (reference: nonphosphorylated T353 15-mer, sites T353) | binding against the reference (reference: nonphosphorylated T367 15-mer, sites T367) | Substance |
| --- | --- | --- |
| stronger | – | MST1 (from UniProt Q13043) pT353 15-mer |
| – | stronger | MST1 (from UniProt Q13043) pT367 15-mer |
